Values joined by “and” are separate entries in the source; they are usually repeats but may differ in a detail not shown here. Equal entries are not always repeated.
Tests used:
[1] = target: RSV-F of RSV subtype B lab strains; assay: cell-based or functional assay
[2] = target: RSV-F of RSV subtype A lab strains; assay: cell-based or functional assay

B1: H1H3592P3 (antibody, V domains shown)
VH: EVQLVESGGDLVQPGRSLRLSCVASGFTFDDYAMHWVRQAPGKGLEWVSGVSWSGSTVGYADSVKGRFTVSRDNAQKSLYLQMNSLRAEDTALYYCVKDAYKFNYYYYGLDVWGQGTTVTVSS
VL: EIVMTQSPATLSVSPGERATLSCRASQTILSNLAWYLQKPGQAPRLLIYGASTRATGLPARFSGSGSGTEFTLTISSLQSEDFAVYYCQQYNNWPLTFGGGTKVEIK
- neutralization potency on HEp-2 cells, fold against control I [1]: 2 fold and 5 fold
- neutralization potency on HEp-2 cells, fold against control I [2]: 15 fold and 17 fold
